# B1: unnamed (protein)
# chain 1: EVQLVESGGGLVQPGGSLRLSCAASGFTFNNYAMNWVRQAPGKGLDWVSTISGSGGTTNYADSVKGRFIISRDSSKHTLYLQMNSLRAEDTAVYYCAKDSNWGNFDLWGRGTLVTVSS
# chain 2: not shown
# B2: unnamed (protein)
# chain 1: QVQLVQSGAEVKKPGSSVKVSCKASGYSFTDYHIHWVRQAPGQGLEWMGVINPMYGTTDYNQRFKGRVTITADESTSTAYMELSSLRSEDTAVYYCARYDYFTGTGVYWGQGTLVTVSS
# chain 2: DIVMTQTPLSLSVTPGQPASISCRSSRSLVHSRGNTYLHWYLQKPGQSPQLLIYKVSNRFIGVPDRFSGSGSGTDFTLKISRVEAEDVGVYYCSQSTHLPFTFGQGTKLEIK
# B3: unnamed (protein)
# chain 1: EVQLVESGGGLVQPGGSLRLSCAASGFSFSDFAMSWVRQAPGKGLEWVATIGRVAFHTYYPDSMKGRFTISRDNSKNTLYLQMNSLRAEDTAVYYCARHRGFDVGHFDFWGQGTLVTVSS
# chain 2: DIQMTQSPSSLSASVGDRVTITCRSSETLVHSSGNTYLEWYQQKPGKAPKLLIYRVSNRFSGVPSRFSGSGSGTDFTLTISSLQPEDFATYYCFQGSFNPLTFGQGTKVEIK
# B4: unnamed (protein)
# chain 1: QVQLVQSGAEVKKPGSSVKVSCKASGYTFTDYNMHWVRQAPGQGLEWIGYIYPYNGGTGYNQKFKSKATITADESTNTAYMELSSLRSEDTAVYYCARGRPAMDYWGQGTLVTVSS
# chain 2: DIQMTQSPSSLSASVGDRVTITCRASESVDNYGISFMNWFQQKPGKAPKLLIYAASNQGSGVPSRFSGSGSGTDFTLTISSLQPDDFATYYCQQSKEVPWTFGQGTKVEIK
# B5: unnamed (protein)
# chain 1: QVQLVQPGAEVVKPGASVKLSCKTSGYTFTSNWMHWVKQAPGQGLEWIGEIDPSDSYTNYNQNFQGKAKLTVDKSTSTAYMEVSSLRSDDTAVYYCARGSNPYYYAMDYWGQGTSVTVSS
# chain 2: EIVLTQSPAIMSASPGERVTMTCSASSGVNYMHWYQQKPGTSPRRWIYDTSKLASGVPARFSGSGSGTSYSLTISSMEPEDAATYYCHQRGSYTFGGGTKLEIK
# B6: unnamed (protein)
# chain 1: QVQLKESGPGLVAPSQSLSITCTVSGFSVTNYGVHWVRQPPGKGLEWLGVIWAGGITNYNSAFMSRLSISKDNSKSQVFLKMNSLQIDDTAMYYCASRGGHYGYALDYWGQGTSVTVSS
# chain 2: SIVMTQTPKFLLVSAGDRVTITCKASQSVSNDVTWYQQKAGQSPKLLIYSASNRYSGVPDRFTGSGYGTAFTFTISTVQAEDLAVYFCQQDYSSFGGGTKLEIK
# B7: unnamed (protein)
# chain 1: QVQLVQSGAEVMKPGSSVKVSCKASGYTFSWYWLEWVRQAPGHGLEWMGEIDPGTFTTNYNEKFKARVTFTADTSTSTAYMELSSLRSEDTAVYYCARFSHFSGSNYDYFDYWGQGTLVTVSS
# chain 2: EIVMTQSPATLSVSPGERATLSCRASQSIGTNIHWYQQKPGQAPRLLIYYASESISGIPARFSGSGSGTEFTLTISSLQSEDFAVYYCQQSWSWPTTFGGGTKVEIK
# B8: unnamed (protein)
# chain 1: EVQLVESGGGVVQPGRSLRLSCSASGFDFTTYWMSWVRQAPGKGLEWIGEIHPDSSTINYAPSLKDRFTISRDNAKNTLFLQMDSLRPEDTGVYFCASLYFGFPWFAYWGQGTPVTVSS
# chain 2: DIQLTQSPSSLSASVGDRVTITCKASQDVGTSVAWYQQKPGKAPKLLIYWTSTRHTGVPSRFSGSGSGTDFTFTISSLQPEDIATYYCQQYSLYRSFGQGTKVEIK
# B9: unnamed (protein)
# chain 1: EVQLVESGGGLVKPGGSLKLSCAASGFKFSRYAMSWVRQAPGKRLEWVATISSGGSYIYYPDSVKGRFTISRDNVKNTLYLQMSSLRSEDTAMYYCARRDYDLDYFDSWGQGTLVTVSS
# chain 2: DIQMTQSPSSLSASVGDRVTITCKASRDIRSYLTWYQQKPGKAPKTLIYYATSLADGVPSRFSGSGSGQDYSLTISSLESDDTATYYCLQHGESPFTLGSGTKLEIK
# B10: unnamed (protein)
# chain 1: QVQLVESGGGVVQPGRSLRLSCAASGFTFSSYGMHWVRQAPGKGLEWVAVISYEESNRYHADSVKGRFTISRDNSKITLYLQMNSLRTEDTAVYYCARDGGIAAPGPDYWGQGTLVTVSS
# chain 2: DIVMTQSPLSLTVTPGEPASISCRSSQSLLYSNGYNYLDWYLQKPGQSPQVLISLGSNRASGVPDRFSGSGSGTDFTLKISRVEAEDVGVYYCMQARQTPFTFGPGTKVDIR
# B11: unnamed (protein)
# chain 1: EVQLVESGGGLVRPGGSLRLSCAASGFTFSNYDMHWVRQATGKGLEWVSAITAAGDIYYPGSVKGRFTISRENAKNSLYLQMNSLRAGDTAVYYCARGRYSGSGSYYNDWFDPWGQGTLVTVSS
# chain 2: EIVLTQSPATLSLSPGERATLSCRASQSVSSYLAWYQQKPGQAPRLLIYDASNRATGIPARFSGSGSGTDFTLTISSLEPEDFAVYYCQQRSNWPLTFGGGTKVEIK
# B12: unnamed (protein)
# chain 1: QVTLRESGPALVKPTQTLTLTCTVSGFSLSAYSVNWIRQPPGKALEWLAMIWGDGKIVYNSALKSRLTISKDTSKNQVVLTMTNMDPVDTATYYCAGDGYYPYAMDNWGQGSLVTVSS
# chain 2: DIVMTQSPDSLSVSLGERATINCRASKSVDSYGNSFMHWYQQKPGQPPKLLIYLASNLESGVPDRFSGSGSGTDFTLTISSLQAEDVAVYYCQQNNEDPRTFGGGTKVEIK
# B13: unnamed (protein)
# chain 1: EVKLEESGGGLVQPGGSMKLSCVASGFIFSNHWMNWVRQSPEKGLEWVAEIRSKSINSATHYAESVKGRFTISRDDSKSAVYLQMTDLRTEDTGVYYCSRNYYGSTYDYWGQGTTLTVSS
# chain 2: DILLTQSPAILSVSPGERVSFSCRASQFVGSSIHWYQQRTNGSPRLLIKYASESMSGIPSRFSGSGSGTDFTLSINTVESEDIADYYCQQSHSWPFTFGSGTNLEVK
# B14: unnamed (protein)
# chain 1: EVQLVESGGGVVQPGRSLRLSCSASGFIFSRYDMSWVRQAPGKGLEWVAYISHGGAGTYYPDSVKGRFTISRDNSKNTLFLQMDSLRPEDTGVYFCARGGVTKGYFDVWGQGTPVTVSS
# chain 2: DIQMTQSPSSLSASVGDRVTITCRASGNIHNYLTWYQQTPGKAPKLLIYNAKTLADGVPSRFSGSGSGTDYTFTISSLQPEDIATYYCQHFWSIPYTFGQGTKLQIT
# B15: unnamed (protein)
# chain 1: EVQLLESGGGLVQPGGSLRLSCAASGFTFSIYSMNWVRQAPGKGLEWVSSIGSSGGTTYYADSVKGRFTISRDNSKNTLYLQMNSLRAEDTAVYYCAGSQWLYGMDVWGQGTTVTVSS
# chain 2: DIQMTQSPSSLSASVGDRVTITCRSSQRIMTYLNWYQQKPGKAPKLLIFVASHSQSGVPSRFRGSGSETDFTLTISGLQPEDSATYYCQQSFWTPLTFGGGTKVEIK
# B16: unnamed (protein)
# chain 1: EVQLLESGGGLVQPGGSLRLSCAASGFTFSHYIMMWVRQAPGKGLEWVSGIYSSGGITVYADSVKGRFTISRDNSKNTLYLQMNSLRAEDTAVYYCAYRRIGVPRRDEFDIWGQGTMVTVSS
# chain 2: DIQMTQSPSTLSASVGDRVTITCRASQSISSWLAWYQQKPGKAPKLLIYKASTLESGVPSRFSGSGSGTEFTLTISSLQPDDFATYYCQQYNTYWTFGQGTKVEIK
# B17: unnamed (protein)
# chain 1: QVQLQESGPGLVKPSETLSLTCTVSGFSLTSYIVDWIRQPPGKGLEWIGVIWAGGSTGYNSALRSRVSITKDTSKNQFSLKLSSVTAADTAVYYCASAAYYSYYNYDGFAYWGQGTLVTVSS
# chain 2: DVVMTQSPLSLPVTLGQPASISCKSSQSLLYTDGKTYLYWFLQRPGQSPRRLIYLVSKLDSGVPDRFSGSGSGTDFTLKISRVEAEDVGVYYCLQSTHFPHTFGGGTKVEIK
# B18: unnamed (protein)
# chain 1: EVQLVQSGAEVKKPGASVKVSCKASGYRFTNYWIHWVRQAPGQGLEWIGGINPGNNYATYRRKFQGRVTMTADTSTSTVYMELSSLRSEDTAVYYCTREGYGNYGAWFAYWGQGTLVTVSS
# chain 2: DVQVTQSPSSLSASVGDRVTITCRSSQSLANSYGNTFLSWYLHKPGKAPQLLIYGISNRFSGVPDRFSGSGSGTDFTLTISSLQPEDFATYYCLQGTHQPYTFGQGTKVEIK
# B19: unnamed (protein)
# chain 1: QVQLVESGGGVVQPGRSLRLSCAASGFTFSSFGMHWVRQAPGKGLEWVAYISSGSFTIYYADSVKGRFTISRDNSKNTLYLQMNSLRAEDTAVYYCARMRKGYAMDYWGQGTLVTVSS
# chain 2: DVVMTQSPLSLPVTLGQPASISCRSSQIIIHSDGNTYLEWFQQRPGQSPRRLIYKVSNRFSGVPDRFSGSGSGTDFTLKISRVEAEDVGVYYCFQGSHVPHTFGQGTKVEIK
# B20: unnamed (protein)
# chain 1: QVQLVQSGGGLVQPGGSLRLSCAASGFTFSSYYMSWVRQAPGKGLEWVSGIYSDGTTHYGDSVKGRFTISRDNAKNTVYLQLNSLRAEDTAMYYCAKGAGPTWWYALDAWGQGTLVTVSS
# chain 2: DIQLTQSPSSVSVSVGERVTIDCKSSQSVLSASNTYLNWYQQKPGQAPQLLIYYASTRESGVPDRFSGSGSGTDFTLTISSLQAEDAAVYYCQQAYRAPVTFGQGTKLEIK
# Test: patients with anti-drug antibodies; higher = more immunogenic
row,Protein,patients with anti-drug antibodies [%]
1,B1,3.9
2,B2,8.5
3,B3,18
4,B4,0
5,B5,0
6,B6,100
7,B7,6.3
8,B8,0
9,B9,15.8
10,B10,1.8
11,B11,3.6
12,B12,30
13,B13,30.5
14,B14,16.8
15,B15,7.4
16,B16,7
17,B17,4
18,B18,2
19,B19,0
20,B20,0

# — the FLAb antibody collection
